Test results published in patent US5847088A, “Antibodies specific for platelet-activating factor acetylhydrolase” (ICOS Corporation, priority 1995, dated 1998).

Test: Pharmacokinetics of PAF-AH in rat circulation (double mAb capture ELISA)
Type: in vivo
Settings: 2000 U IV, mean ± SEM
Protocol: Four rats received 2000 U of PAF-AH by IV injection in a 300 μl volume. Plasma was collected at various time points and stored at 4° C. and plasma concentrations of PAF-AH were determined by ELISA using a double mAb capture assay. In brief, monoclonal antibody 90G11D (Example 13) was diluted in 50 mM carbonate buffer pH 9.6 at 100 ng/ml and immobilized on Immulon 4 ELISA plates overnight at 4° C. After extensive washing with PBS containing 0.05% Tween 20, the plates were blocked for 1 hour at room temperature with 0.5% fish skin gelatin (Sigma) diluted in PBS. Serum samples diluted in PBS with 15 mM CHAPS were added in duplicate to the washed ELISA plate and incubated for 1 hour at room temperature. After washing, a biotin conjugate of monoclonal antibody 90F2D (Example 13) was added to the wells at a concentration of 5 μg/ml diluted in PBS and incubated for 1 hour at room temperature. After washing, 50 μl of a 1:1000 dilution of ExtraAvidin (Sigma) was added to the wells and incubated for 1 hour at room temperature. After washing, wells were developed using OPD as a substrate and quantitated. Enzyme activity was then calculated from a standard curve. […]

B1: PAF-AH: Recombinant human plasma platelet-activating factor acetylhydrolase (beginning at Ile42 of SEQ ID NO:8) expressed in E. coli (protein, UniProt Q13093 22-441, looked up)
Platelet-activating factor …: FDWQYINPVAHMKSSAWVNKIQVLMAAASFGQTKIPRGNGPYSVGCTDLMFDHTNKGTFLRLYYPSQDNDRLDTLWIPNKEYFWGLSKFLGTHWLMGNILRLLFGSMTTPANWNSPLRPGEKYPLVVFSHGLGAFRTLYSAIGIDLASHGFIVAAVEHRDRSASATYYFKDQSAAEIGDKSWLYLRTLKQEEETHIRNEQVRQRAKECSQALSLILDIDHGKPVKNALDLKFDMEQLKDSIDREKIAVIGHSFGGATVIQTLSEDQRFRCGIALDAWMFPLGDEVYSRIPQPLFFINSEYFQYPANIIKMKKCYSPDKERKMITIRGSVHQNFADFTFATGKIIGHMLKLKGDIDSNVAIDLSNKASLAFLQKHLGLHKDFDQWDCLIEGDDENLIPGTNINTTNQHIMLQNSSGIEKYN
  plasma enzyme level at one hour: 374 U/ml
